From the nanobody polyreactivity screen of Harvey et al. (2022) come the findings set out here.

This data set in a line: yeast display, Sf9 membrane polyspecificity reagent, FACS + sequencing; frameworks hold sequencing errors. The procedure, abridged:
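Sorting gates, low and high (top ~1%), were placed on anti-HA fluorescence to track expression and on streptavidin fluorescence to track reagent binding. A clone's polyreactivity label is taken from the gate it came out of. The reagent was 10% biotinylated, detergent-solubilized Sf9 membrane, applied for 1 hour at 4 °C to galactose-induced yeast display cells.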
With “QVQLVESGGGLVQAGGTLRLSCAASGFTFYSNTMGWYRQAPGKERELFAAITRTGVSTYYADSVKGRFTISRDNAKNTVYLQMNSLKPEDTAVYYCAALVKGQGTVHRYYYLGQGTQVTVSS”, the “polyreactivity (PSR sort gate)” value is on record as “high polyreactivity”.

Turning to “QVQLVESGGGLVQAGGTLRLSCAASGGTFATYAMGWCRQGPGKERELVAAITQSGGTTYYADSVKRRFTISRDNANNTVYLQMNSLKPEDTAVYYCNAEASQAVYYAYEYWGQGTQVTVSS”, the “polyreactivity (PSR sort gate)” value is “low polyreactivity”. Take “QVQLVESGGGLVQAGGTLRLSCAASGIIFVWNAMGWYRQAPGKERELVAAITNGGSTYYADSVKGRFTISRDNAKNTVYLQMNSLKPEDTAVYYCNVRYFFRFRDDYWGQGTQVTVSS”: the “polyreactivity (PSR sort gate)” value is given as “low polyreactivity”. On to “QVQLVESGGGLVQAGGTLRLSCAASGIIFYYYAMGWYRQAPGKERELVAAITGTGSRTYYADSVKGRFTISRDNAKNTVYLQMNSLKPEDTADYYCNARSFATGSKVPARGYWGQGTQVTVSS”, for which the “polyreactivity (PSR sort gate)” value is “high polyreactivity”. To “QVQLVESGGGLVQAGGTLRLSCAASGITFHRYDMGWYRQAPGKERELVADITWSGGSTYYADSVKGRFTISRDNAKNTVYLQMNSLKPEDTAVYYCAADASTYTYTPYDNWGQGTQVTVSS” belongs “low polyreactivity”.

For “QVQLVESGGGLVQAGGTLRLSCAASGRIFSRYVMGWYRQAPGKQRELVASISWSGGSTRYADSVKGRFTISRDNAKNTVYVQMNSLKPEDTAVYYCAARFILSKYGSGVRYNYWGQGTQVTVSS”, the “polyreactivity (PSR sort gate)” value is reported as “high polyreactivity”. “QVQLVESGGGLVQAGGTLRLSCAASGRISAFNAMGWYRQAPGKERELVAAIHVSGGNTYYADSVKGRFTISRDNAKNTVYLQMNSLKPEDTAVYYCAAERRRWGVDYYYWGQGTQVTVST”: the “polyreactivity (PSR sort gate)” value was “high polyreactivity”. In the case of “QVQLVESGGGLVQAGGTLRLSCAASGRISTHNAMGWYRQAPGKERELVAAITSGGRTTYADSVKGRFTISRDNAKNTVYLLMNSLKPEDTAVYYCNADTGLGSLDFDKRDYWGQGTQVTVSS”, the “polyreactivity (PSR sort gate)” value was “low polyreactivity”. To “QVQLVESGGGLVQAGGTLRLSCAASGRTFAYNAMGWYRQAPGKERELVAAITWSGDSTYYADSVKGRFTISRDNAKKTVYLQRNSLKPEDTAVYYCAADYFGGPSYEFDYWGQGTQVTVSS” belongs “low polyreactivity”; to “QVQLVESGGGLVQAGGTLRLSCAASGRTFNTYAMGWYRQAPGKERELVAAISSGGRTYYADSVKGRFTISRDNAMLTVYLQMNSLKPEDTAVYYCAAKRFQYRTLYEFWGLGTQVTVSS”, “high polyreactivity”; to “QVQLVESGGGLVQAGGTLRLSCAASGRTFYFYAMGWYRQAPGKERELVAAITSRVGRTYYADSVKGRFTISRDNAKNTVYLQMNSLKPEDTAVYYCAAEGVYRMGYWGQGTQVTVSS”, “high polyreactivity”. For the sequence “QVQLVESGGGLVQAGGTLRLSCAASGRTIKQNAMGWYRQAPGKERELVATIRNGGNTNYADSVKGRFTISRDNAKNNVYLQMNSLKPEDTAVYYCAAARSPYKYSYWGQGTQVTVSS”, the “polyreactivity (PSR sort gate)” value is “high polyreactivity”. To “QVQLVESGGGLVQAGGTLRLSCAASGRTYYGYAMGWYRQATGKERQLVAAIRSTTGSTYYADSVKGRFTISRDNAKITVYLQMNSLKPEDTAVYYCASAYPFYADMDYWGQGTQVTVSS” belongs “low polyreactivity”; to “QVQLVESGGGLVQAGGTLRLSCAASGSIFPRYGMGWYRHAPGKERELVAAISGSGGSTYYADSVKGRFTISRDNAKNTVYLQMNSLKPEDTAVYYCNKLRRRVNRDIDDYWGQRTQVTVSS”, “high polyreactivity”; to “QVQLVESGGGLVQAGGTLRLSCAASGSIFTYNAMGWYRQAPGKERELVAAITRSGGRTYYADSVKGRFTISRDNAKNTVYLQMNSLKPEDNAVYYCNTLRVGWGQGTQVTVSS”, “high polyreactivity”. To “QVQLVESGGGLVQAGGTLRLSCAASGSIFWSYAMGWYRQAPGKEREFVASITGSGGTTTYADSVKGRFTISRDNAKNTVYLQMISLKPEDTAVYYCNARLHGWYHVYYIYDYWGQGTQVTVSS” belongs “low polyreactivity”. The entry for “QVQLVESGGGLVQAGGTLRLSCAASGSTFAANAMGCSRQAPGKERELVAGISESGDRTYADSVKGRFTISRDNAKNTVYLQMNSQKPEETAVYYCNVGANVYLLYFPSRGGVYDYGYWGHGTQVTVSS” is “low polyreactivity”. Turning to “QVQLVESGGGLVQAGGTLRLSCAASGSTFLTNAMGWNRPAPGKERELVAAIRTSGGSTYYADSVKGRFTISRDNAKNTFYVLMNSLKPEDTAVYYCAASYLRRRFSEYYYWGQGTQVTVSS”, the “polyreactivity (PSR sort gate)” value was “high polyreactivity”. “QVQLVESGGGLVQAGGTLRLSCAASGSTFNEYAMGWYRQAPGKERELVAAIDERGGNTYYADSVKGRFTISRDNAKNTVYLQMNSLKPEDTAVYYCAADAYPYYQSYYPFEYWGQGTQVTVSS”: the “polyreactivity (PSR sort gate)” value is reported as “low polyreactivity”.

Turning to “QVQLVESGGGLVQAGGTLRLSCAASGSTFRRYAMGWYRHAPVKERELVAAISGRGGSTSYADSVKGRFTISRDNAKNTVYLQMNSLKPEDTAVYYCAADDKYFYPGNGYWGQGTQVTVSS”, the “polyreactivity (PSR sort gate)” value was “high polyreactivity”.

Turning to “QVQLVESGGGLVQAGGTLRLSCAASGSTFSVNAMGWYRQAPGKERELVASITTSGGSTNYADSVKGRFTISRDNAKNTVYLQMNSLKPEDTAVYYCNDDTPGSSPSDYNYWGQGTQVTVSS”, the “polyreactivity (PSR sort gate)” value is “low polyreactivity”. As for “QVQLVESGGGLVQAGGTLRLSCADSGLTFAKYAMGWYRQAPGKERQLVAAISRSGGSTYYADSVKGRFTISRDNAKNTVYLQINSLKPEDTARFYCPKSSGTLWITKYDYWGQGTQVTVSS”, the “polyreactivity (PSR sort gate)” value is “low polyreactivity”.

Turning to “QVQLVESGGGLVQAGGTLRLSCAPSGRIFKTYAMGWYRQAPGKERELVAAITNNGGSTYYADSVKGRFTISRDNAKNTVYLLMNSLKPEDTAVYYCAVYVKYHYPVVTTGYDYWGQGTQVTVSS”, the “polyreactivity (PSR sort gate)” value is “high polyreactivity”.

In the case of “QVQLVESGGGLVQAGGTLRLSCDASGRTFGYNAMGWYRQAPGKAREFDAAITWSGGSTYYADSVKGRFTISRDNAKNTVYLQMNSLKPEDTAVYYCAADLGRPLHGVAYGYWGQGTQVTVSS”, the “polyreactivity (PSR sort gate)” value is “low polyreactivity”. To “QVQLVESGGGLVQAGGTLRLSSAASGFTFGNYAMGWYRQAPGKERELVAAISGRSGRTYYADSVKGRFTISRDNAKNTVYLQMISLKPEVTAVYYCAKKVFGWEYYYWGQGTQVTVSS” belongs “high polyreactivity”; to “QVQLVESGGGLVQAGGTLRLTCAASGRIFNSNDMRWYRQAPGKERELVASISPNTGTTYYADSVKGRFTISRDNAKNTVYLQMNSLKPEDTAVYYCAARGVYYQDGLVTGEAEYGYWGQGTQVTVSS”, “low polyreactivity”; to “QVQLVESGGGLVQAGRSHRLSCAASGRTFKPYAMGWYRPAPGKERELVARISGSGGSTYYADSVKGRFTISRDYAKNTVYLQMNSLNPEDIAVYYCATTPYYWFDYWGQGRQVTVSS”, “low polyreactivity”.

As for “QVQLVESGGGLVQAGRSHRLSCAASGSTYANTMGWYIQAPGKERELDAAITYTGGSTYYADSVKGRFTISRDNAKNTVYLQMNSLKPEDTAVYYCAADAQAPPGGFKEYDYWGQGTQVTVSS”, the “polyreactivity (PSR sort gate)” value is given as “low polyreactivity”. With “QVQLVESGGGLVQAGRSIRLSCAASGRTFLGNSLGWYRQAPGKEMELVAAITRNGGGTYYPDSVKGRFTISRDNAKNTVYLQMNSLKPEDTAVYYCAALTSLFWRGGGLDYWGQGTQVTVSS”, the “polyreactivity (PSR sort gate)” value is “high polyreactivity”. The entry for “QVQLVESGGGLVQAGRSLLLSCAASGRIFDGYAKGRYRQAPGKERELVAAINSNDGTTYYADSVKGRFTISRDKAKHTVYVQMNSLKPEDTAVYYCAKVSYNAWSYGPQMDYWGQGTQVTVSS” is “low polyreactivity”; for “QVQLVESGGGLVQAGRSLPLSCAASGRTFRPNAMGWYRQAPGKERELVAVSSWRGGRTYYADSVKGRFTISRDNAKNTVYLQMNSLKPEDTAVYYCAAGPTSRRWYDYWGQGTQVTVSS” it is “high polyreactivity”; for “QVQLVESGGGLVQAGRSLRLICAASGSTFKRYAMGWYRQAPGKERELVAAITWTGGRTYYADSVKGRFTISRDNANYTVYLQMNSLKPEDTAVYYCAADDPHTAYGYWGQGTQVTVSS” it is “high polyreactivity”. In the case of “QVQLVESGGGLVQAGRSLRLSCAASGFIFWRYAMGWYRQAPGKERELVAAISSGRNTKYADSVKGRFTISRDNAKTTVYLQMNSLKPEDTAVYYCAVLGKYLWSATNRFPGSYDSWGHGTQVTVSS”, the “polyreactivity (PSR sort gate)” value is on record as “high polyreactivity”. With “QVQLVESGGGLVQAGRSLRLSCAASGFTFIRYDMGWYRQALGKETELVATITRRGGSTYYADSVKGRFTISRDNAKNTVYLQMNSLKPEDTAVYYCNRDYVTYGKYYYWGQGTQVTVSS”, the “polyreactivity (PSR sort gate)” value is given as “high polyreactivity”. With “QVQLVESGGGLVQAGRSLRLSCAASGFTFLVYAMGWYRQAPGTERELVAAMSNGGSTNYADSVKGRFTITRDTAKNTVYLHMNSLKPEDTAVYYCAADDPRDHWYTAMDYWGQGTQVTVSS”, the “polyreactivity (PSR sort gate)” value is given as “low polyreactivity”. Consider “QVQLVESGGGLVQAGRSLRLSCAASGNIFIRYAMGWYRQAPGKEREVVAAISQSGGGTSYADSVKGRFTISRDNAKNTVYLQMNSLKPEDTAVYYCNARYWRYPWRFGAWVGHDYWGQGTQVTVSS”, for which the “polyreactivity (PSR sort gate)” value is reported as “low polyreactivity”. To “QVQLVESGGGLVQAGRSLRLSCAASGRIFSRYTMGWYRQAPGKERELVAANSYRGGSTYYADSVKGRFTISRDNAKNTVYLQMNSLKPEDTEVYYCAARVQAIYRYDYCGQGTQVTVSS” belongs “high polyreactivity”; to “QVQLVESGGGLVQAGRSLRLSCAASGRIFYGYAMGWYRQAPGRERELVAANTYIGGTYYADSVKGRFTISRDNAKNTVYLQMKSLKPEDTAVYYCATEPFYTYGYYTYPYWYDYWGQATQVTVSS”, “low polyreactivity”; to “QVQLVESGGGLVQAGRSLRLSCAASGSIFGFYAMGCYRQAPGKERELVAASTVSDGTTYYADSVKGRFTISRDNAKNSFFFLMNSVKPEDTVVYYCAGDVFRQHEYYYWGQGTQVTVSS”, “low polyreactivity”. Take “QVQLVESGGGLVQAGRSLRLSCAASGSILGFYAMGWYRHAPGKERELVAAIRWRAGSTYYADSVKGRFTISRDNAKNTVNLQMNSLKPEDTAVYYCAAPTKYRSRRYYWGQGTQVTVSS”: the “polyreactivity (PSR sort gate)” value is listed as “high polyreactivity”.
